B1: gGT25-5: glycosyltransferase protein with 472 amino acids, SEQ ID NO.: 20 (protein)
chain: MKSELIFVPVPAFGHLVGMVEMAKLFISRHENLSVTVLISKFFIDTGIDNYNKSLLAKPTPRLTIINLPEIDPQKYLLKPRCAIFPSLIENQKTHVRDVMSRMTQSESTRVVGLLADILFVDIFDIADEFNVPTYVYSPAGAGFLGLAFHLQTLNDDKKQDVTEFRNSDTELLVPSFANPVPAEFLPSIFLEKDGRHDVLLSLYWRCREAKGIIVNTFEELEPYAINSLRMDSMIPPIYPVGPILNLNGEGQNSDEAAVILGWLDDQPPSSVVFLCFGSFGSFPENQVKEIAMGLERSGHRFLWSLRPCISEGETTLQLKYSNLELPAGFLDRTSCVGKVIGWAPQMAILAHEAVGGFVSHCGWNSVLESVWYGMPVATWPMYGEQQLNAFEMVKELGLAVEIEVDYRNEYNKSDFIVKADEIETKIKKLMMDGKNSKIRKKVKEMKEKSRVAMSENGSSYTSLAKLFEEIM
modifications: Panax ginseng; gGT25-5
B2: 3GT4: glycosyltransferase protein with 458 amino acids, SEQ ID NO.: 43 (protein)
chain: MEREMLSKTHIMFIPFPAQGHMSPMMQFAKRLAWKGLRITIVLPAQIRDFMQITNPLINTECISFDFDKDDGMPYSMQAYMGVVKLKVTNKLSDLLEKQRTNGYPVNLLVVDSLYPSRVEMCHQLGVKGAPFFTHSCAVGAIYYNARLGKLKIPPEEGLTSVSLPSIPLLGRDDLPIIRTGTFPDLFEHLGNQFSDLDKADWIFFNTFDKLENEEAKWLSSQWPITSIGPLIPSMYLDKQLPNDKDNGINFYKADVGSCIKWLDAKDPGSVVYASFGSVKHNLGDDYMDEVAWGLLHSKYHFIWVVIESERTKLSSDFLAEAEAEEKGLIVSWCPQLQVLSHKSIGSFMTHCGWNSTVEALSLGVPMVALPQQFDQPANAKYIVDVWQIGVRVPIGEEGVVLRGEVANCIKDVMEGEIGDELRGNALKWKGLAVEAMEKGGSSDKNIDEFISKLVSS
modifications: Panax ginseng; 3GT4
B3: gGT29: glycosyltransferase protein with 442 amino acids, SEQ ID NO.: 26 (protein)
chain: MDNQKGRISIALLPFLAHGHISPFFELAKQLAKRNCNVFLCSTPINLSSIKDKDSSASIKLVELHLPSSPDLPPHYHTTNGLPSHLMLPLRNAFETAGPTFSEILKTLNPDLLIYDFNPSWAPEIASSHNIPAVYFLTTAAASSSIGLHAFKNPGEKYPFPDFYDNSNITPEPPSADNMKLLHDFIACFERSCDIILIKSFRELEGKYIDLLSTLSDKTLVPVGPLVQDPMGHNEDPKTEQIINWLDKRAESTVVFVCFGSEYFLSNEELEEVAIGLEISTVNFIWAVRLIEGEKKGILPEGFVQRVGDRGLVVEGWAPQARILGHSSTGGFVSHCGWSSIAESMKFGVPVIAMARHLDQPLNGKLAAEVGVGMEVVRDENGKYKREGIAEVIRKVVVEKSGEVIRRKARELSEKMKEKGEQEIDRALEELVQICKKKKDEQ
modifications: Panax ginseng; gGT29
B4: gGT29-3: glycosyltransferase protein with 442 amino acids, SEQ ID NO.: 28 (protein)
chain: MDNQEGRISIALLPFLAHGHISPFFELAKQLAKRNCNVFLCSTPINLSSIKNKDSSASIKLVELHLPSSPDLPPHYHTTNGLPSHLMVPLINAFETAGPTFSEILKTLNPDLLIYDFNPSWAPEIASSHNIPAVYFLTTAAASSSIGLHAFKNPGEKYPFPDFYDNSNNTPEPPSADNMKLLHDFIACFERSCDIILIKSFIELEGKYIDLLSTLSDKTLVPVGPLVQDPMGHNEDPKTEQIINWLDKRAESTVVFVCFGSEYFLSNEELEEVAIGLEISMVNFIWAVRLIEGEKKGVLPEGFVQRVGDRGLVVEGWAPQARILGHSSTGGFVSHCGWSSIAESMKFGVPVIAMARHLDQPLNGKLAAEVGVGMEVVRDENGKYKREGIAEVIRKVVVEKSGEVMRRKARELSEKMKEKGEEEIDRAVEELVQICKKKKDAQ
modifications: Panax ginseng; gGT29-3
B5: gGT29-6: glycosyltransferase protein with 446 amino acids, SEQ ID NO.: 59 (protein)
chain: MDNQKGRISIVMLPFLAHGHISPFFELAKHLSKRNCNIFLCSTPINLSSIKNRISDKDSSASIKLVELHLPSSPDLPPHYHTTNGLPSHLMVPLRNAFETAAPTFSEILKTLNPDLLIYDFNPSWAPEIASSHNIPAVYFLTTAAASSSIGLHAFKNPGEKYPFPDFYDNSNNTPEPPSADNMKLLHDFIACFERSCDIILIKSFIELEGKYIDLLSTLSDKTLVPVGPLVQDPMGHNEDPKTEQIINWLDKRAESTVVFVCFGSEYFLSNEELEEVAIGLEISMVNFIWAVRLIEGEKKGVLPEGFVQRVGDRGLVVEGWAPQARILGHSSTGGFVSHCGWSSIAESMKFGVPVIAMARHLDQPLNGKLAAEVGVGMEVVRDENGKYKREDIAGVIRKVVVEKSGEVIRRKARELSEKMKEIGEQLIDRAVEELVQICKKKKDEQ
modifications: Panax ginseng; gGT29-6
B6: gGT29-4: glycosyltransferase protein with 446 amino acids, SEQ ID NO.: 55 (protein)
chain: MDNQKGRISIALLPFLAHGHISPFFELAKHLSKRNCNIFLCSTPINLSSIKNRISDKDSSASIKLVELHLPSSPDLPPHYHTTNGLPSHLMVPLRNAFETAAPTFSEILKTLNPDLLIYDFNPSWAPEIASSHNIPAVCFIIGGAASFSMSLHSFKNPGEKYPFLDFDDNSNITPEPPSADNMKLLLDFMTCFERSCDIILIKSFRELEGKYFDFYSTLSDKTLVPVGPLVQDPMGHNEDPKTEQFINWLDKRAESTVVFVCFGSEYFLSNEELEEVAIGLEISMVNFIWAVRLIEGEKKGVLPEGFVQRVGDRGLVVEGWAPQARILGHSSTGGFVSHCGWSSITESMKFGVPVIAMARHLDQPLNGKLAAEVGVGMEVVRDENGKYKREGIAEVIRKVVVEKSGEVMRRKARELSEKMKEKGEEEIDRAVEELVQICKKKKDEQ
modifications: Panax ginseng; gGT29-4

How the values were obtained:
Format in all cases: biochemical
[1] = Glycosyltransfering reaction with crude enzyme, substrate PPD; details: UDP-glucose, 35° C., 12 hrs, TLC
Procedure: (§1) The lysate supernatant of the recombinant yeasts expressing the empty vector was used as control.
(§2) The reaction was conducted under 35° C. for 12 hrs, then stopped by adding 100 μL of butanol. The product were extracted, dried in vacuum, and dissolved in methanol.
(§3) The reaction products were first detected by thin layer chromatography (TLC).
(§4) The converted products of gGT25 were further identified by HPLC (FIG. 10 and FIG. 11). The retention time of peak 2 was identical to that of the CK standard sample; the retention time of peak 3 was identical to that of PPD. […] Peak 1, also present in the profile of the negative control, indicated its irrelevance to the conversion of PPD. 3 peaks were shown in FIG. 11, the retention time of peak 1 was identical to that of F1 standard sample and peak 3 was identical to that of PPT. […] Peak 2, also present in the profile of the negative control, indicated its irrelevance to the conversion of PPT.
(§5) According to the method as in Example 4, the cell lysate of recombinant yeasts expressing gGT13 and gGT30 were used to catalyze PPD and PPT.
The cell lysis supernatant of the recombinant E. coli was used as crude enzyme to conduct the glycosyltransfering reaction, and the reaction condition was identical to that of Example 4.
The reaction was conducted under 35° C. for 12 hrs. 100 μL of butanol was added to stop the reaction and the products were extracted. Upon vacuum drying, the product was dissolved by methanol. TLC was first used to detect the reaction product.
(§6) The glycosyltransfering reactions of ginsenosides and ginsengenins were catalyzed by using the lysis supernatant of the recombinant yeasts expressing 3GT1, 3GT2, 3GT3 and 3GT4 as crude enzymes. The lysis supernatant of recombinant E. coli expressing empty vectors was used as control. The 100 μL reaction system is shown as Table 3. The reaction was conducted under 35° C. for 12 hrs, then stopped by adding 100 μL of butanol. The product were extracted, dried in vacuum, and dissolved in methanol.
The reaction was conducted under 35° C. for 12 hrs, and then stopped by adding 100 μL of butanol. The product were extracted, dried in vacuum, and dissolved in methanol. The reaction products were first detected by thin layer chromatography (TLC) (FIG. 35).

[2] = Glycosyltransfering reaction with crude enzyme, substrate PPT; details: crude enzyme: lysate supernatant of recombinant yeast; UDP-glucose, 35° C., 12 hrs; TLC
Procedure: as §1, §2, §3, §4, §5, §6

[3] = Glycosyltransfering reaction with crude enzyme, substrate DM; details: crude enzyme: lysate supernatant of recombinant yeast; UDP-glucose, 35° C., 12 hrs; TLC
Procedure: as §1, §2, §3, §6

[4] = Glycosyltransfering activities on ginsengenins and saponins: glycosylation site and specificity (summary)
Procedure: More than 100 predicted cDNA sequences of glycosyltransferases were extracted from the published expression profile data of the Panax plant. 60 cDNAs with full length were cloned, expressed, and subjected to the analysis of glycosyltransfering reaction.
as §1, §2, §6
(§7) The lysate supernatant of the recombinant yeast expressing empty vectors was used as control. The reaction was conducted under 35° C. for 12 hrs, and then stopped by adding 100 μL of butanol. The product were extracted, dried in vacuum, and dissolved in methanol.
(§8) The glycosyltransfering reactions of ginsenosides Rh2 and F2 were catalyzed by using the lysate supernatant of the recombinant yeasts expressing 3GT1, 3GT2, 3GT3 and 3GT4 as crude enzymes. The 100 μL reaction system is shown as Table 3. The reaction was conducted under 35° C. for 12 hrs, and then stopped by adding 100 μL of butanol. The product were extracted, dried in vacuum, and dissolved in methanol.

[5] = Glycosyltransfering reaction with crude enzyme, substrate CK; details: 35° C., 12 hrs, TLC
Procedure: as §5, §6

[6] = Glycosyltransfering reaction with crude enzyme, substrate 25-OH-PPD; details: 35° C., 12 hrs, TLC
Procedure: as §6

[7] = Glycosyltransfering reaction with crude enzyme, substrate Rh2; details: crude enzyme: lysate supernatant of recombinant yeast; 35° C., 12 hrs; TLC
Procedure: as §1, §2
The reaction products were first detected by thin layer chromatography (TLC). […]
as §7, §8

[8] = Glycosyltransfering reaction with crude enzyme, substrate F2; details: 35° C., 12 hrs, TLC; for extension of C3 of F2 by one more glycosyl (product Rd): crude enzyme: lysate supernatant of recombinant yeast; for extension of C3 glycosyl of F2 by one more glycosyl (product Rd): crude enzymes of Example 21 (E. coli expression products)
Procedure: as §5, §7, §8

[9] = Glycosyltransfering reaction with crude enzyme, substrate Rh2; details: crude enzymes of Example 21 (E. coli expression products); 35° C., 12 hrs; TLC
[10] = Table 2, tetracyclic triterpenoid substrates
[11] = crude enzyme: lysate supernatant of recombinant E. coli, UDP-glucose

| Molecule | extension of C3 of Rh2 by one more glycosyl (product Rg3) [7] | extension of C3 of F2 by one more glycosyl (product Rd) [8] | glycosylation site: The first glycosyl at C-3 [4, 10] | extension of C3 glycosyl of F2 by one more glycosyl (product Rd) [8] | extension of C3 glycosyl of Rh2 by one more glycosyl (product Rg3) [9] | further results |
| --- | --- | --- | --- | --- | --- | --- |
| B1 | – | – | – | – | – | glycosylation of C20-OH of PPD (product CK) ([1]; crude enzyme: lysate supernatant of recombinant yeast): could not glycosylate the C20-OH; glycosylation of C6-OH of PPT (product Rg1 or Rh1) [2]: can only glycosylate C6-OH; glycosylation of C20-OH of PPT (product F1) [2]: could not glycosylate the C20-OH; glycosylation of C20-OH of DM (product 20-O-β-(D-glucopyranosyl)-dammarendiol II) [3]: could not glycosylate the C20-OH; glycosylation site: C6 [4, 10]: ✓ |
| B2 | – | – | – | – | – | substrate that could be catalyzed: PPD ([1]; crude enzyme: lysate supernatant of recombinant E. coli): ✓; glycosylation of C3-OH of CK (product F2) ([5]; crude enzyme of Example 11): further glycosylating its C3-OH; substrate that could be catalyzed: CK [5, 11]: ✓; glycosylation of C3-OH of 25-OH-PPD (product 3-O-β-(D-glucopyranosyl)-25-OH-PPD) ([6]; crude enzyme of Example 11): could be glycosylated; substrate that could be catalyzed: 25-OH-PPD [6, 11]: ✓; glycosylation site: C-3 [4, 10]: ✓; substrate spectrum / specificity ([4]; comparison of 3GT1, 3GT2, 3GT3 and 3GT4, Table 6): best specificity |
| B3 | could be extended by one more glycosyl | could be extended by one more glycosyl | ✓ | – | – | – |
| B4 | could be extended by one more glycosyl | could be extended by one more glycosyl | ✓ | – | – | – |
| B5 | – | – | ✓ | could be extended by one more glycosyl | could be extended by one more glycosyl | – |
| B6 | – | – | ✓ | could be extended by one more glycosyl | could not be catalyzed | – |
